{"source": "paper PMC6033619", "about": "(ACS chemical neuroscience, 2018)", "binders": {"B1": {"name": "ZL181 (Cbz-FLPK(Boc)-CONH2) (peptide)", "peptide": "Cbz-FLPK(Boc)-NH2", "SMILES": "CC(C)C[C@H](NC(=O)[C@H](Cc1ccccc1)NC(=O)OCc1ccccc1)C(=O)N1CCC[C@H]1C(=O)N[C@@H](CCCCNC(=O)OC(C)(C)C)C(N)=O"}}, "key": {"[1]": {"target": "T1, FGF14^V160A (aa 64-252) (human) (UniProt Q92915)", "T1 sequence": "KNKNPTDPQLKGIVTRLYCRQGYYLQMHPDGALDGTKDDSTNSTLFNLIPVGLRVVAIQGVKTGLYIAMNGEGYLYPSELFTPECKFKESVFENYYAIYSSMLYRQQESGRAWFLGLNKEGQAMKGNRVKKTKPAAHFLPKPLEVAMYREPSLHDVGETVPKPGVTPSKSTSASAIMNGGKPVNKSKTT", "assay": "SPR"}, "[2]": {"target": "T2, FGF14^WT (aa 64-252) (human) (UniProt Q92915)", "T2 sequence": "T1 sequence with A97V", "assay": "SPR"}, "[3]": {"target": "CLuc-FGF14 (human) (human, UniProt Q92915 1-247)", "assay": "split reporter"}}, "note": "Where a chain is given by its changes, count along the chain named. *: point of attachment. Cbz = O=C(OCc1ccccc1)*; Boc = CC(C)(C)OC(=O)*"}
{"binder": "B1", "values": [{"measurement": "Kd", "setting": "[1]", "result": 182, "unit": "µM"}, {"measurement": "Kd", "setting": "[2]", "result": 89.6, "unit": "µM"}, {"measurement": "IC50", "setting": "[3]", "result": 63, "unit": "µM"}]}
